Measured values as given in the RNAGym collection of RNA variant scans (doi:10.7554/elife.80360).

B1: HDV Ribozyme (parent)
chain: GGCCGGCAUGGUCCCAGCCUCCUCGCUGGCGCCGGCUGGGCAACAUUCCGAGGGGACCGUCCCCUCGGUAAUGGCGAAUGGGACCCA

Variants of: B1
Assay: self-cleavage, relative activity (ratio to wild type); higher = more cleavage; co-transcriptional
For C15G G74C, the self-cleavage was 0.119. In the case of C15A U60C, the self-cleavage is reported as 0.538. Work on C15A U60A yielded a self-cleavage of 0.623. Work on C15A U37A yielded a self-cleavage of 0.102. Work on C15A C66A yielded a self-cleavage of 0.684. Variant C15A C66G has a self-cleavage of 0.688. With C15A C66U the self-cleavage was 0.909. Work on C14U U69A yielded a self-cleavage of 1.02. For C15A A83G, the self-cleavage was 0.284. With C15A A83U the self-cleavage was 0.0639. Work on C15G U27A yielded a self-cleavage of 0.431. In the case of C15A A78U, the self-cleavage is reported as 0.0639. With C15A A78G the self-cleavage was 0.447. C15G C22U gave a self-cleavage of 0.222. C15G U46C gave a self-cleavage of 0.256. C15G U46G gave a self-cleavage of 0.755. C14U C57A showed a self-cleavage of 1.07. Work on C14U C44U yielded a self-cleavage of 0.831. In the case of C15U A45G, the self-cleavage is reported as 0.8. With C15U A45U the self-cleavage was 0.831. C14U G82U showed a self-cleavage of 0.494. For C14U G82C, the self-cleavage was 0.415. With C14U C61U the self-cleavage was 1.22. In the case of C14U C61A, the self-cleavage is reported as 1.14. Variant C15A G50C has a self-cleavage of 0.404. Variant C15A G50A has a self-cleavage of 0.527. C15A G50U showed a self-cleavage of 0.674. With C15G C84G the self-cleavage was 0.222. Work on C15G C84U yielded a self-cleavage of 0.302. C15A A87C showed a self-cleavage of 0.654. Work on C15A A87G yielded a self-cleavage of 0.776. C15A A87U gave a self-cleavage of 0.746. C14U U65G showed a self-cleavage of 0.997. In the case of C14U U65C, the self-cleavage is reported as 0.997. With C14U U65A the self-cleavage was 1.22. C15A G52A gave a self-cleavage of 0.708. Work on C15A G52C yielded a self-cleavage of 0.655. Variant C15U A42C has a self-cleavage of 0.161. C15U A42G gave a self-cleavage of 0.246. C15U A42U gave a self-cleavage of 0.322. In the case of C14U A83U, the self-cleavage is reported as 0.378. Work on C14U A83G yielded a self-cleavage of 0.54. Work on C15A C61A yielded a self-cleavage of 0.831. C14U A77C showed a self-cleavage of 0.249. C15G C44U showed a self-cleavage of 0.434. Work on C15G C44A yielded a self-cleavage of 0.237. C14U gave a self-cleavage of 1.09. C15A C75G gave a self-cleavage of 0.142. C14U G81C showed a self-cleavage of 0.806. Work on C14U C41U yielded a self-cleavage of 1.11. For C14U C33A, the self-cleavage was 0.201. For C14U C33G, the self-cleavage was 0.123. C15G A77C gave a self-cleavage of 0.128. C15A U47G gave a self-cleavage of 0.35. Work on C15A U47A yielded a self-cleavage of 0.522. In the case of C15A U47C, the self-cleavage is reported as 0.317. For C14G U72A, the self-cleavage was 0.383. Work on C14G U72G yielded a self-cleavage of 0.312. C14G U72C showed a self-cleavage of 0.0978. C14U U60A gave a self-cleavage of 1.23. In the case of C14U U60C, the self-cleavage is reported as 1.11. Variant C14U U60G has a self-cleavage of 0.772. For C15G U47C, the self-cleavage was 0.128. In the case of C15G U47G, the self-cleavage is reported as 0.665. Work on C15A G34A yielded a self-cleavage of 0.0723. For C15G C49A, the self-cleavage was 0.519. In the case of C15G C49G, the self-cleavage is reported as 0.499. Work on C15A A56C yielded a self-cleavage of 0.782. Variant C15A C18G has a self-cleavage of 0.111. C15A C18A showed a self-cleavage of 0.115. For C15A C48U, the self-cleavage was 0.54. For C15A C22G, the self-cleavage was 0.113. C15A C22A gave a self-cleavage of 0.111. For C15A C22U, the self-cleavage was 0.231. Work on C15A C58U yielded a self-cleavage of 0.458. In the case of C15G A51C, the self-cleavage is reported as 0.623. C15G A51G gave a self-cleavage of 0.587. Work on C14U C30G yielded a self-cleavage of 0.0923. Variant C15A G53C has a self-cleavage of 0.674. C15A G53U showed a self-cleavage of 0.808. Variant C15A G55U has a self-cleavage of 0.608. C15A G55C showed a self-cleavage of 0.482. C14U A42U showed a self-cleavage of 0.587. C14U A42C showed a self-cleavage of 0.232. C14U G54C gave a self-cleavage of 1.2. C14U G54A gave a self-cleavage of 1.04. For C15G U69A, the self-cleavage was 0.604. For C15G U69G, the self-cleavage was 0.256. Work on C15G C26A yielded a self-cleavage of 0.332. Work on C15G C26U yielded a self-cleavage of 0.623. Variant C15G C26G has a self-cleavage of 0.431. For C14U G53C, the self-cleavage was 1.07. Variant C14U G53U has a self-cleavage of 1.16. Variant C14U G53A has a self-cleavage of 1.11. For C14U U47G, the self-cleavage was 0.939. For C14U U47C, the self-cleavage was 1.13. In the case of C15G G50A, the self-cleavage is reported as 0.723. In the case of C15G C19A, the self-cleavage is reported as 0.0831. With C15G C19U the self-cleavage was 0.0898. With C15G A16C the self-cleavage was 0.369. For C14U C32G, the self-cleavage was 0.0462. For C15A G25C, the self-cleavage was 0.0692. Variant C15G G80C has a self-cleavage of 0.88. Work on C15G G80A yielded a self-cleavage of 0.635. C15G G80U gave a self-cleavage of 0.73. Variant C15A G17C has a self-cleavage of 0.0978. C15G C63A gave a self-cleavage of 0.684. In the case of C15A A42C, the self-cleavage is reported as 0.122. C15A A42G gave a self-cleavage of 0.104. Work on C15G G68U yielded a self-cleavage of 0.369. With C15G G68A the self-cleavage was 0.525. For C14U A45C, the self-cleavage was 0.646. For C14U U72C, the self-cleavage was 0.532. With C14U U20A the self-cleavage was 0.145. Work on C14U U20G yielded a self-cleavage of 0.145. C14U C84G showed a self-cleavage of 0.914. Work on C14U C84A yielded a self-cleavage of 0.643. C15G G31C gave a self-cleavage of 0.178. C15G G31U showed a self-cleavage of 0.135. For C14G U69C, the self-cleavage was 0.519. Variant C15G U60A has a self-cleavage of 0.185. C15G U60C showed a self-cleavage of 0.7. With C15A C24U the self-cleavage was 0.0811. Work on C15A C24A yielded a self-cleavage of 0.378. For C15A C32A, the self-cleavage was 0.151. C15A C32G showed a self-cleavage of 0.107. For C14G U79A, the self-cleavage was 0.266. For C14U A70U, the self-cleavage was 1.08. With C14U A70C the self-cleavage was 1.02. C14U A70G gave a self-cleavage of 0.931. C15G C48A showed a self-cleavage of 0.623. With C15G C48U the self-cleavage was 0.237. C15G C58U showed a self-cleavage of 0.482. In the case of C14U G52C, the self-cleavage is reported as 1.1. C14U G52A showed a self-cleavage of 0.973. C14U G67U showed a self-cleavage of 1.08. With C15A A77U the self-cleavage was 0.302. For C14U C48G, the self-cleavage was 1.08. For C14U C48A, the self-cleavage was 0.928. C15G G38C showed a self-cleavage of 0.0639. With C15G G38A the self-cleavage was 0. In the case of C15G G53C, the self-cleavage is reported as 0.598. For C15G G53U, the self-cleavage was 0.724. In the case of C15A U69C, the self-cleavage is reported as 0.598. Work on C15A A51U yielded a self-cleavage of 0.573. C15A A51C showed a self-cleavage of 1.14. C15A A51G showed a self-cleavage of 0.923. In the case of C14U C21U, the self-cleavage is reported as 0.237. Work on C14U C21A yielded a self-cleavage of 0. Variant C15U A51C has a self-cleavage of 1.17. Variant C14U U79A has a self-cleavage of 1.02. C15G C41A gave a self-cleavage of 0.529. With C15G C41U the self-cleavage was 0.277. For C15A U46A, the self-cleavage was 0.361. Work on C15A U46C yielded a self-cleavage of 0.653. With C15G G29U the self-cleavage was 0. For C15G C86A, the self-cleavage was 0.712. C14U U46C showed a self-cleavage of 1.03. In the case of C15A G38U, the self-cleavage is reported as 0. Variant C15A G38C has a self-cleavage of 0.0831. For C14U C63G, the self-cleavage was 0.831. C14U C63A gave a self-cleavage of 0.957. Variant C14U C63U has a self-cleavage of 0.927. C14U G59U gave a self-cleavage of 0.997. Work on C14U G59A yielded a self-cleavage of 1.31. C14U C85A gave a self-cleavage of 0.978. In the case of C15G G34A, the self-cleavage is reported as 0.237.
